The numbers were not newly measured in patent US20100068187A1, “TRANSCRIPTION FACTORS FOR DIFFERENTIATION OF ADULT HUMAN OLFACTORY PROGENITOR CELLS” (priority 2006, published 2010), which cites them from elsewhere.

For this data set, the system named is Human NSFCs. As to conditions: incubated in the presence of neurotrophic factor.

B1: BDNF: brain-derived neurotrophic factor (protein, UniProt P23560 19-247, looked up)
Neurotrophic factor BDNF …: APMKEANIRGQGGLAYPGVRTHGTLESVNGPKAGSRGLTSLADTFEHVIEELLDEDQKVRPNEENNKDADLYTSRVMLSSQVPLEPPLLFLLEEYKNYLDAANMSMRVRRHSDPARRGELSVCDSISEWVTAADKKTAVDMSGGTVTVLEKVPVSKGQLKQYFYETKCNPMGYTKEGCRGIDKRHWNSQCRTTQSYVRALTMDSKKRIGWRFIRIDTSCVCTLTIKRGR
On to B1, for which the “neuronal differentiation of human NSFCs” value was “refractory to neuronal differentiation”.

B2: GDNF: glial-derived neurotrophic factor (protein, UniProt P39905 78-211, looked up)
Glial cell line-derived …: SPDKQMAVLPRRERNRQAAAANPENSRGKGRRGQRGKNRGCVLTAIHLNVTDLGLGYETKEELIFRYCSGSCDAAETTYDKILKNLSRNRRLVSDKVGQACCRPIAFDDDLSFLDDNLVYHILRKHSAKRCGCI
With B2, the “neuronal differentiation of human NSFCs” value is recorded as “refractory to neuronal differentiation”.
